Data taken from IntAct's records for PubMed 18583960.

B1: Serine/threonine-protein kinase TBK1 (Mus musculus), Q9WUN2 (parent)
chain: MQSTSNHLWLLSDILGQGATANVFRGRHKKTGDLYAVKVFNNISFLRPVDVQMREFEVLKKLNHKNIVKLFAIEEETTTRHKVLIMEFCPCGSLYTVLEEPSNAYGLPESEFLIVLRDVVGGMNHLRENGIVHRDIKPGNIMRVIGEDGQSVYKLTDFGAARELEDDEQFVSLYGTEEYLHPDMYERAVLRKDHQKKYGATVDLWSVGVTFYHAATGSLPFRPFEGPRRNKEVMYKIITGKPSGAISGVQKAENGPIDWSGDMPLSCSLSQGLQALLTPVLANILEADQEKCWGFDQFFAETSDVLHRMVIHVFSLQHMTAHKIYIHSYNTAAVFHELVYKQTKIVSSNQELIYEGRRLVLELGRLAQHFPKTTEENPIFVTSREQLNTVGLRYEKISLPKIHPRYDLDGDASMAKAVTGVVCYACRTASTLLLYQELMRKGVRWLVELVKDDYNETVHKKTEVVITLDFCIRNIEKTVKVYEKLMKVNLEAAELGEISDIHTKLLRLSSSQGTIESSLQDISSRLSPGGLLADTWAHQEGTHPRDRNVEKLQVLLNCITEIYYQFKKDKAERRLAYNEEQIHKFDKQKLYYHATKAMSHFSEECVRKYEAFKDKSEEWMRKMLHLRKQLLSLTNQCFDIEEEVSKYQDYTNELQETLPQKMLAASGGVKHAMAPIYPSSNTLVEMTLGMKKLKEEMEGVVKELAENNHILERFGSLTMDGGLRNVDCL
partner: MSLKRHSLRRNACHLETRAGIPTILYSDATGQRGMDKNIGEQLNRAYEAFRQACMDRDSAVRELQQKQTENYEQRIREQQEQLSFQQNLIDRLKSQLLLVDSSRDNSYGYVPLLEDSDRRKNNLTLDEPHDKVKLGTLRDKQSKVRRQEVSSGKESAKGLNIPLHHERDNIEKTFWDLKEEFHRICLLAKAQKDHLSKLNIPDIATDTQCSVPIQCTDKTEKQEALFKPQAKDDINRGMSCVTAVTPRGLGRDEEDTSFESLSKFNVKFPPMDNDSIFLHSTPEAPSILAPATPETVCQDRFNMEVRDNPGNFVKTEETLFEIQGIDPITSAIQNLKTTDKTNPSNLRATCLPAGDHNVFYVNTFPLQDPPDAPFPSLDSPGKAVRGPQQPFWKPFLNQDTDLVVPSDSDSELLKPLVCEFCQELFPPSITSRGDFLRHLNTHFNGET

Variants of: B1
Settings: with tank_mouse Tank

Variant	effect of a mutation on the interaction
S172A	decreasing interaction
